Test: soluble fraction after stress (log2 fold change); higher = more stays soluble; pooled small domains, quantitative proteomics
Conditions: stress: 75 degC
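Also: 20 min heating vs room temperature control held 20 min.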

| Sequence | soluble fraction (log2) |
| --- | --- |
| HMDVNMLVTGMLHKGEKSFVRVSFLRGKDWAEGIVPDAKIEKSQGFMEEEVARLEAYLLEQKSMIMEQA | -1.83 |
| HMETITDRLNRRSLELNVSQADIIRTTGAGRGTVSGWFSGANAPSAKYLESLAVALKTSTTWLLSGKD | -2.23 |
| HMSKLSLREIVKKFEEQIIQLHKRGLNHSEISREIVTKNSIDLGDSHIDSLRRAISVHLQTP | -0.755 |
| HMDLQHQLTPRLKRLRLSGILETLEVRNQQAIAEKWSYVEFLTRLAEDEVERRDHKQLTLRLR | -0.529 |
| HMVAFYATPKERGIYDDAETYREGDIVSIADGSRWIYVNPTATAGNDPADGSVYWERMSGAATGP | 0.116 |
| HMKITTKNYFKAIAEVGVENLPAALKKSHDLIEERTSKGADWSVYEHDAEVRRVFDLTFEKLFEFIDQ | -1.88 |
| HMKLASIGDNIHTLRKNKGLTQSQLAGKLGVNVDTISNYEKGVSTPDFDIVEKLVNIFNVDAHSLLFK | -0.287 |
| HMVVVVELTENEKAVQDVLTKNEGSLEISDLKTKLELSGKQWDKALKGLAKHGITQVAKVDGVVTVSL | -0.381 |
| HMQNKFLDIVGEIEVKAVDYYLLKDTSGLVIKFPKNLVFANGLKIADNKIGLTVSLYGAWVHEET | -1.08 |
| HMTFGEMLQYTNRLKEILESNAPQSIKDRRLANLMTDLEQAYGIPILRDQEFEKENPFLMQLYRTIS | -2.4 |
| HMHFENEETFVLPLVREGFSEQQQLEMVDRLLFDANTDNPRWIIDWMASELPSTQRELLLDLEKRLAEVRS | -0.0441 |
| HMETIELSAPGGVRLDKLIADGTELSRSAAVKLIEQGNVLVNGSPAGKKDIPAAGAAVEITLPEPQ | 0.0135 |
| HMYLEARVKSTTPILSKPNELGKSLGKLYTNDFVALVSLHKNGLDSYYRTANGGYINAADVVIDRDV | -1.49 |
| HMSTNYVQVLRAALNGVSGRKLAQQYRVSRDTVAILLRQAKIQGWQRAEDLENITEEDLVALLSG | -2.43 |
| HMATAADLLQSATGVPRSDALLLLAKLLGVAKERLIAHPETVVSEKTQATFSDWIERVRGGFPTTYLLG | -0.393 |
| HMSPAVSLITGKLGAETYYKQGLKKAKEKDYEGALDDLIKAYEFFPDKKIKTQVDKLASFLGKPPIL | -0.259 |
| HMEKIIGQIQINQRGNGYVIVPNVKDDIFVKRENLNSARQGDRVAVQLLSRPNQKPEGLVQEVLERGQ | 0.637 |
| HMGLLEMPSERERQVLVLIAEGLSNKEIAARLYLTEGTVKNHAHSLYAKLNVTTRTLAIARARQLGI | -1.37 |
| HMQGAARGMLFAQAQRWMTKFRIDPQQADRITQAALDPAQTDAILREVRRGYGPSAERALRGIIRRARRA | -1.94 |
| HMEPVIELGDRTLPIEITRHRRARRLTLRLAADGSAVRITLPHWARSAEATAFAHARRDWLAAQLAK | 0.181 |
| HMSAPTAFSERELELLAGMRRGASNKAMAEQLFISVNTVKYHRANLMRKLGARDRNEALEVAARLG | 0.404 |
| HMTYAQQIGARIAFLRRLKGLTLAELAERVNKHKSTISKYESGQIIIDIESLKEVADALGVDVAQIVE | -1.26 |
| HMISEWDAAYSYAKQYYEENGHLFVPKKYVTSEGAALGKWIWEQRDSYLGLSSYKISDKKIEMLEDIGMFW | -4.03 |
| HMNEKMKEIGLRIKELRELSDISAQGMADHLKIPLETYQEYEDGKKDIPASILFEISQKMEVDMGLLLTGE | -0.476 |
| HMNVDLLEARIPIQSHGMRLDQVVAELFPDYSRNRLAAWIKEGRLTVDGKTMKPRDRALASAHVVLEVV | -0.3 |
| HMNDRERIGKRIAQLRMEAGISQYKLAELTGLAPGNIARIETGKYSTGIDILSKIGDALGYQLDFI | -2.14 |
| HMGPESKLTDAIKDYIYALYENLKGKSKFRNTIIEEVKKLYGVDISRESIRRVVNQKTDAETTENDDDEKA | 0.432 |
| HMITPAARLRALKIRLSVDEVAQIVQRLVNGETVYQIGKPDTGGHAKATVGKINALRLAGQLHFL | -1.45 |

| Sequence | soluble fraction (log2) |
| --- | --- |
| HMKRLLLPGDLAGVRRHLLDRENSFHILRVLRLARGSTIEAMDDAGNRFSATLAGVKAGRALFDLAAKI | -1.75 |
| HMEELGKVRPELDGNEIAKVLGITPGPVLGRAYTYLLSVRLDEGPIGPDVARERLLAWWAEQPES | -1.2 |
| HMVYLPSSIKNIPTKYGEMMVANFKMDELQANSKNGWVSMVISERREPSEKGATHYAYVNTY | 0.484 |
| HMNNGAEIGAEIRSLRKARGLTLEDLAAKIGRSVGYISQVERGISPLTIPNLKAIAEVLGVGINWFFRGEA | -1.15 |
| HMPAGWIPARIRLADYPQLRSLAWHVQGIDTLTPTEALDIYERNARHLDAQAMSAQEQDLLASLRLALS | -0.888 |
| HMFQLSNEAKQQVLGELKRYESKQSAVLPALYIGQKDNKGHITPEVIRELSKVMDIPESQINEVFTFYTM | -0.287 |
| HMEDVDLFTKAMAALPNRYRDILLLRYSHGYTVEEISDILSMKPENVKKTIQRARKKLGEILEAEG | -1.25 |
| HMAQELPYEKVTMNGKMFYVYHVKAGEGLYLISRTFSVNADEILKFNPSIENGLKSGQVLYIPIK | -1.23 |
| HMFTEIMAERNALIQAIQQNLPPQHIQSILSKKNKFRLEDLTNEELRDVWQWILNQRQAQQHQQQ | -0.0958 |
| HMETVRHFRLDWSQAADRLDKVLASLMNDVSRARIQEWIRLGAVSVNGEILTDVRAKVAGGDAIDVTPQTA | -0.722 |
| HMKVTADVVVADRLKAWIISNNLKPGDRLPTEQKLSEELGVARHTLREGIKRLSQLGIIGSRTGSGMYVKN | -1.06 |
| HMDIFSSFVAIKNANVRELPTAKSAQVATLSKGSEVTALGKVKGKNWYLVARDGKELGYVFGSLIAEAET | -1.56 |
| HMLPKNITNTIDHWIQKFPQGKQRSAIIAALHAVQHHNKGFLTNDLLNQVADYIDVPKMNVYEVATFYSM | 0.169 |
| HMNAISIDEAKKIALAKVSGASDQHIRIEADHDDGRLVYEGEIHYGRVEYEFEIDGSTGAIIEWDADRK | -0.286 |
| HMTSKIIIGDSYSKINKLLGEPENMKKRKFLDNEYLMVLYSINKKNYRLYFKDNILFELEDI | -0.991 |
| HMTSSVIIPKLIGKTEEEAKVALAGLNVQVLYETHGDQANGIVIKQSFEEGTKVIKGVSIVITVNKVS | -1.91 |
| HMIRQGTKQALLIEMLQRPEGASITEIVEATSWQAHTARGAISGALKKKLGLPITSEKHPERGTVYKL | -0.862 |
| HMSALTDQQQRVLELVASGLVYKEVAAALSISEPTVKYHMGNILTRLHVKNRAQAIAAARQQGLL | -1.58 |
| HMDVKPWERQEGESAKAFEAFTIYAGLGADRSLRAVAQQLGKSKTLMDRWSSTYSWVARAAEYDADLQRK | -0.489 |
| HMKSIETVAELVAELKKLNPNAKISNIDGTYTLEEDINTITLPKDFKYDNNLGINNKIDDFTPYISLDVKA | 0.662 |
| HMSSSYMVRITTSVLNVRKGPGTNYGITTKVKKGEVYTIVAEEKNGNTTWGKLKSGTGYISLGYTER | -1.21 |
| HMKPDDDMLLKILTKLFIQKQFVINSKDIFQYILKNTNRTYENIINIVNRLDTLSIEKKRQLTIPLIKEI | -0.585 |
| HMISQATMEKMGLTNRERQLVDFIVRGASNQEISEKMFISINTVKIHVSNIFRKAGVRSRTELMDKYP | -3.26 |
| HMVEDFSEVLLQYIREQGGAIALNDKTDAGVIYDTFGVSKKTFKKAVGDLYKKRLIVLGDEGIRLA | -0.757 |
| HMLADEPTGALDSKTSVQIMALLTEIAQDRLVIMVTHNPELADEYATRIVNLRDGVISDDSDPFNP | -0.0933 |
| HMENKLIELTLSLDKSERLDKILTQELSHTRSVIQQWLKSGFVSVNGEIVKANYKAKDGDHVTIQIE | -0.594 |
| HMSFPQVELNTNKGRIVLELNSEKAPKTVANFLEYVRDGFYDGVIFHRVIDGFMIQGGGFDENFKEKA | -0.6 |

Source: the domain aggregation screens of Martell et al. (2025)
